Blank lines part the entries; values can stand above or below the binder they belong to.
Key:
[1] = target: T1, Biotinylated Human VEGF165 Protein, His, Avitag (Acro Biosystems) (human, UniProt P15692-4 27-191, biotin-labeled (site not stated; Avitag)); assay: bridging ELISA: PD-L1 coated, sample, then biotin-labeled VEGF165
T1 construct: also called biotin-labeled VEGF165; not shown: His tag and Avitag

[2] = target: T2, VEGF 121 Protein, Human, Recombinant (Sino Biological) (human, UniProt P15692-9 27-147); assay: competition ELISA, VEGF121 coated, competitor biotin-labeled VEGFR2
T2 sequence (looked up): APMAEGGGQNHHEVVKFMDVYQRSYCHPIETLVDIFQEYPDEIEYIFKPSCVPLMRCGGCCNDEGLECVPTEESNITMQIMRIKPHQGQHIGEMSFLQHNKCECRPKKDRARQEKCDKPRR

[3] = target: VEGF165 Protein, Human, Cynomolgus, Recombinant, HPLC-verified (Sino Biological) (Human, Cynomolgus, UniProt P15692-4 27-191); assay: competition ELISA, VEGF165 coated, competitor biotin-labeled VEGFR2
Description: (§1) 100 μL of 2N H₂SO4 stop solution was added to each well to terminate the substrate reaction.

[4] = target: T1, Biotinylated Human VEGF165 Protein, …; assay: competition ELISA, VEGFR1 coated (competitor), biotin-labeled VEGF165 detected
Description: as §1

binding result [1]: no binding
B1: SG1202 (printed 'a PD-L2 antibody 1'; used as PD-L1 antibody, apparently PD-L1 antibody 2) (antibody, V domains shown)
VH: EVQLVESGGGLVQPGGSLRLSCAASGFTFSRYWMSWVRQAPGKGLEWVANIKQDGSEKYYVDSVKGRFTISRDNAKNSLYLQMNSLRAEDTAVYYCAREGGWFGELAFDYWGQGTLVTVSS
VL: EIVLTQSPGTLSLSPGERATLSCRASQRVSSSYLAWYQQKPGQAPRLLIYDASSRATGIPDRFSGSGSGTDFTLTISRLEPEDFAVYYCQQYGSLPWTFGQGTKVEIK
notes: Only variable regions are tied to SG1202; also called PD-L1 antibody SG1202; antibody SG1202

IC50 [2]: 3.29 nM
IC50 [3]: 3.5 nM
IC50 [4]: 5.05 nM
B2: bispecific fusion protein 12VF2 (bispecific antibody, human IgG1, kappa)
light: EIVLTQSPGTLSLSPGERATLSCRASQRVSSSYLAWYQQKPGQAPRLLIYDASSRATGIPDRFSGSGSGTDFTLTISRLEPEDFAVYYCQQYGSLPWTFGQGTKVEIKRTVAAPSVFIFPPSDEQLKSGTASVVCLLNNFYPREAKVQWKVDNALQSGNSQESVTEQDSKDSTYSLSSTLTLSKADYEKHKVYACEVTHQGLSSPVTKSFNRGEC
heavy: EVQLVESGGGLVQPGGSLRLSCAASGFTFSRYWMSWVRQAPGKGLEWVANIKQDGSEKYYVDSVKGRFTISRDNAKNSLYLQMNSLRAEDTAVYYCAREGGWFGELAFDYWGQGTLVTVSSASTKGPSVFPLAPSSKSTSGGTAALGCLVKDYFPEPVTVSWNSGALTSGVHTFPAVLQSSGLYSLSSVVTVPSSSLGTQTYICNVNHKPSNTKVDKRVEPKSCDKTHTCPPCPAPEFEGGPSVFLFPPKPKDTLMISRTPEVTCVVVDVSHEDPEVKFNWYVDGVEVHNAKTKPREEQYNSTYRVVSVLTVLHQDWLNGKEYKCKVSNKALPASIEKTISKAKGQPREPQVYTLPPSREEMTKNQVSLTCLVKGFYPSDIAVEWESNGQPENNYKTTPPVLDSDGSFFLYSKLTVDKSRWQQGNVFSCSVMHEALHNHYTQKSLSLSPGKGGGGSGGGGSSDTGRPFVEMYSEIPEIIHMTEGRELVIPCRVTSPNITVTLKKFPLDTLIPDGKRIIWDSRKGFIISNATYKEIGLLTCEATVNGHLYKTNYLTHRQTNTIIDVVLSPSHGIELSVGEKLVLNCTARTELNVGIDFNWEYPSSKHQHKKLVNRDLKTQSGSEMKKFLSTLTIDGVTRSDQGLYTCAASSGLMTKKNSTFVRVHE
